{
  "source": "paper PMC3333854",
  "about": "(Nucleic Acids Research, 2011)",
  "biological_target": "wild-type E. coli core RNA polymerase (E. coli, UniProt P0A8T7 1-1407; P0A8V2 1-1342; P0A7Z4 1-329; P0A800 1-91)",
  "sequence (P0A8T7 whole entry, chain 1 of 4)": "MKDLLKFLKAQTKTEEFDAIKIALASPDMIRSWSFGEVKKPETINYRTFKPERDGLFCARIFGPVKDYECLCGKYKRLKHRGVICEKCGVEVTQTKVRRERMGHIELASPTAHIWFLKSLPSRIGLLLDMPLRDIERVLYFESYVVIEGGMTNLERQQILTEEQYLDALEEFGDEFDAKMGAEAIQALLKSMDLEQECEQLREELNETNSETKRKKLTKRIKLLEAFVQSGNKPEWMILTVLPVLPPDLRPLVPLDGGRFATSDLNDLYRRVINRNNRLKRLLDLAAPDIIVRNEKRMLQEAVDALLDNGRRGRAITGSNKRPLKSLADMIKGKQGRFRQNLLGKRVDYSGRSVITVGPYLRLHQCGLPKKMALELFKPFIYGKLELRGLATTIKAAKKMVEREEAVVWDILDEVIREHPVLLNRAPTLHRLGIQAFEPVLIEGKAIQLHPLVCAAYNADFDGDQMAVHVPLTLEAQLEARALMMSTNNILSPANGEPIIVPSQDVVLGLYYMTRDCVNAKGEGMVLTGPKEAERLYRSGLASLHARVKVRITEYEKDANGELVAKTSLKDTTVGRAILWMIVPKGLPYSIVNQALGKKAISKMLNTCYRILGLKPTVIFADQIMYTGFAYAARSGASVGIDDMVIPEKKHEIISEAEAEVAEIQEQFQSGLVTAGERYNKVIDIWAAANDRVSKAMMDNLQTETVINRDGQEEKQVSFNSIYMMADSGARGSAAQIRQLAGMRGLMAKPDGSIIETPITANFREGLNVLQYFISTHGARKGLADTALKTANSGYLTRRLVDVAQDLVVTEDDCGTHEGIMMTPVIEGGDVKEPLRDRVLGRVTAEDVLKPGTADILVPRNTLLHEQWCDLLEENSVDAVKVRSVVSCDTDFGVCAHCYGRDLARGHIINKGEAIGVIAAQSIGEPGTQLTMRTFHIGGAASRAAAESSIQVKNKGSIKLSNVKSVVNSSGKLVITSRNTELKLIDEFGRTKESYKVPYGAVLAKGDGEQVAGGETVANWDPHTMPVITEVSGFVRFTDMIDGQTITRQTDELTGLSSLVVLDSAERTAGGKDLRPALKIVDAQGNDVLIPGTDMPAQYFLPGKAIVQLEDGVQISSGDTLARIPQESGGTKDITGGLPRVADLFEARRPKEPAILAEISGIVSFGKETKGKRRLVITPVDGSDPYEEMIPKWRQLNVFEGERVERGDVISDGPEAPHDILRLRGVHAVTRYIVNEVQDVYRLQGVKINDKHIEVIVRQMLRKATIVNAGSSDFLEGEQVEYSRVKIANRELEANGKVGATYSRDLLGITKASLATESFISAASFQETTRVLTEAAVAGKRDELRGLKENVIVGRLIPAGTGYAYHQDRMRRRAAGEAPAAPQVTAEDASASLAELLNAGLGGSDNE",
  "sequence (P0A8V2 whole entry, chain 2 of 4)": "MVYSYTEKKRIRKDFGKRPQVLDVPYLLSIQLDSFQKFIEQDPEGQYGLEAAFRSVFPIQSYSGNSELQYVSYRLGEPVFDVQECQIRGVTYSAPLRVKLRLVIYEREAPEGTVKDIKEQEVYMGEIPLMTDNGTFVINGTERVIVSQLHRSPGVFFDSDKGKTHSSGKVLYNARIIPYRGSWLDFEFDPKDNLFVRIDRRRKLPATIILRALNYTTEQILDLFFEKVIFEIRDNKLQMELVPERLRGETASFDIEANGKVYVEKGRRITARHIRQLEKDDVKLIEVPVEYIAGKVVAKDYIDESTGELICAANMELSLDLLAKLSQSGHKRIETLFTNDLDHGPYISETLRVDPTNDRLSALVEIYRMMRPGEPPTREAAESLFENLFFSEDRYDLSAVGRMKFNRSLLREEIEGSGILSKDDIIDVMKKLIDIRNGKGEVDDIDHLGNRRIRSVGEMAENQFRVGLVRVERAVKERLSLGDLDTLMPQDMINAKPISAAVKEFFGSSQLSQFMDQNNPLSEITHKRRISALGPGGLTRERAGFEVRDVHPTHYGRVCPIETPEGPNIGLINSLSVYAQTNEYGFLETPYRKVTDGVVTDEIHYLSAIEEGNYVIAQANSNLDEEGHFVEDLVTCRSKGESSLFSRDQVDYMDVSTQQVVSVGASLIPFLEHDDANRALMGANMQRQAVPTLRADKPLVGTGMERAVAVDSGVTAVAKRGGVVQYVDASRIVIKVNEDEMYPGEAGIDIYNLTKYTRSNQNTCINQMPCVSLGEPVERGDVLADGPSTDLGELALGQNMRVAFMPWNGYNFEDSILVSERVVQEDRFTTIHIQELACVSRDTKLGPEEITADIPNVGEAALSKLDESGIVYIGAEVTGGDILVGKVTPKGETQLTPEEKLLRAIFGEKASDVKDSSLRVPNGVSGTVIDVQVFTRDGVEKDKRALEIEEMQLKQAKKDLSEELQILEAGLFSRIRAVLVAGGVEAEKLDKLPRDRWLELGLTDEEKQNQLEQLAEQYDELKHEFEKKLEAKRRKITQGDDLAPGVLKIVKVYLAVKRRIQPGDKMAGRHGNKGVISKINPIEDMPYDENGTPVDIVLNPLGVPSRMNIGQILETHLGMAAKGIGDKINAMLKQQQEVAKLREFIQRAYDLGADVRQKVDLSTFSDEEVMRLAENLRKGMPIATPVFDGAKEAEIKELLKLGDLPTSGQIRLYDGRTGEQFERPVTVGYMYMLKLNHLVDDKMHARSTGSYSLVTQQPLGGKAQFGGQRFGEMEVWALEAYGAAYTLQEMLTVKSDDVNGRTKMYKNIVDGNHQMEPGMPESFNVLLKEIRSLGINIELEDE",
  "sequence (P0A7Z4 whole entry, chain 3 of 4)": "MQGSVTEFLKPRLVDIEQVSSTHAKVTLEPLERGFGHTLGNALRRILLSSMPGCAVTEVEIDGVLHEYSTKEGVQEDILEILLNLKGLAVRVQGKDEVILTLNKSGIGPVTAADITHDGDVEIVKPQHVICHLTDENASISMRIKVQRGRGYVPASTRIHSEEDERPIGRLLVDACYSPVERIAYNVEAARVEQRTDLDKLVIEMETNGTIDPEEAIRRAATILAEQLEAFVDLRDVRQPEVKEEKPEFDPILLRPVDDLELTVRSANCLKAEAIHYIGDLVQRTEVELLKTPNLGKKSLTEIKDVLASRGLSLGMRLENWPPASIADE",
  "sequence (P0A800 whole entry, chain 4 of 4)": "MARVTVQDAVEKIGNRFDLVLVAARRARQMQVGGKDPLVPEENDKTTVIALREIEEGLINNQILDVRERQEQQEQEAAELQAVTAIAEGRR",
  "experiment": "fluorescence polarisation",
  "data": [
    {"binder": "DksA^A35C labeled with Alexa Fluor 546 maleimide (natural protein, Escherichia coli, UniProt P0ABS1 1-151, looked up, labeled with Alexa Fluor 546 maleimide (labeling efficiency 60-100%)) MQEGQNRKTSSLSILAIAGVEPYQEKPGEEYMNECQLAHFRRILEAWRNQLRDEVDRTVTHMQDEAANFPDPVDRAAQEEEFSLELRNRDRERKLIKKIEKTLKKVEDEDFGYCESCGVEIGIRRLEARPTADLCIDCKTLAEIREKQMAG", "values": [
      {"measurement": "Kd", "result": "102 ± 13", "unit": "nM"}
    ]}
  ]
}
